Source: patent US7666644B2, “Glyphosate-N-acetyltransferase (GAT) genes” (Verdia, Inc., priority 2004, dated 2010)

Assays:
[1] = test system: Nicotiana tabacum L. Xanthi leaf explants; assay: Tobacco shoot regeneration with glyphosate selection after Agrobacterium-mediated transformation; assay type: cell-based; details: explants lacking a GAT gene
Excerpt: Agrobacterium-mediated transformation of plant cells occurs at low efficiencies. To allow propagation of transformed cells while inhibiting proliferation of non-transformed cells, a selectable marker is needed. Antibiotic markers for kanamycin and hygromycin and the herbicide modifying gene bar, which detoxifies the herbicidal compound phosphinothricin, are examples of selectable markers used in plants (Methods in Molecular Biology, 1995, 49:9-18). […] An evolved GAT gene (0—5B8), SEQ ID NO:190, was cloned between a plant promoter (enhanced strawberry vein banded virus) and a […] terminator and introduced into the T-DNA region of the binary vector pMAXY3793 suitable for transformation of plant cells via Agrobacterium tumefaciens EHA105 as shown in FIG. 12. A screenable GUS marker was present in the T-DNA to allow confirmation of transformation. Transgenic tobacco shoots were generated using glyphosate as the only selecting agent.
Axillary buds of Nicotiana tabacum L. Xanthi were subcultured on half-strength MS medium with sucrose (1.5%) and Gelrite (0.3%) under 16-h light (35-42 μEinsteins m^−2 s^−1, cool white fluorescent lamps) at 24° C. every 2-3 weeks. Young leaves were excised from plants after 2-3 weeks subculture and were cut into 3×3 mm segments. A. tumefaciens EHA 105 was inoculated into LB medium and grown overnight to a density of A600=1.0. […]

[2] = test system: Nicotiana benthamiana leaves; assay: Transient expression by Agrobacterium infiltration, GAT protein by SDS-PAGE and blot with antiGAT polyclonal antibody; assay type: in vivo; details: infiltrated leaves, 3 days, as a percent of total protein
Experimental: A binary vector with a dMMV-gat-UBQ3 cassette in the T-DNA was transformed into competent Agrobacterium tumefaciens strain C58 cells by electroporation (McCormac et al., Mol. Biotechnol. 9:155-159, 1998). After growth on LB+40 ug/ml kanamycin plates for 2 days at 28° C., colonies were inoculated into LB+40 ug/ml kanamycin liquid medium and shaken overnight at 28° C. The Agrobacterium cells were collected by centrifugation at 4000 g for 10 minutes and then resuspended in a volume of 10 mM MgSO4 equivalent to the initial culture volume. This bacterial suspension was forced or “infiltrated” into the intercellular spaces of Nicotiana benthamiana leaves using a 1 ml plastic syringe (with no needle). By infiltrating 200-300 μl of bacterial suspension into each spot (typically 3-4 cm^2 in infiltrated area), 4 or more spots could be arranged on a single leaf still attached to the plant. In some cases the gat-containing Agrobacterium strain was diluted 5:1 or 10:1 with a second Agrobacterium strain lacking gat prior to infiltration. This dilution step has the effect of reducing the overall expression of the gat gene in the plant cells, thereby preventing saturation and allowing easier visualization of expression differences between variants and constructs. After 3 days the leaf material was ground, extracted in aqueous buffer, and centrifuged. […]

[3] = GAT activity of native YitI; assay type: biochemical
[4] = GAT activity with substrate L-serine (DTNB); assay type: biochemical; details: for kcat/KM % of glyph: Substrate Serine
Experimental: (§1) GAT activity of several GAT polypeptides of the present invention was evaluated with respect to a number of amino acid substrates. The GAT polypeptide, AcCoA and amino substrate were incubated in 25 mM Hepes, pH 6.8, 10% ethylene glycol in the wells of a 96-well polystyrene plate. After 30 minutes, the reactions were stopped by the addition of 30 μl of 10 mM 5,5′-dithiobis-2-nitrobenzoate (DTNB) in 500 mM Tris, pH 7.5. After 2 minutes, absorbance was read at 412 nm in a Spectramax Plus plate reader (Molecular Devices, Sunnyvale, Calif.).

[5] = GAT activity with substrate glyphosate (amino acid substrate study, DTNB); assay type: biochemical; details: Substrate Glyph, relative to 401
Experimental: as §1

[6] = GAT activity with substrate L-aspartate (DTNB); assay type: biochemical; details: for kcat/KM % of glyph: Substrate Aspartate
Experimental: as §1

[7] = Transfer of the propionyl group from propionyl CoA to glyphosate, DTNB detection; assay type: biochemical; details: 1 mM propionyl CoA, 5 mM glyphosate or no glyphosate, 30 minutes
Experimental: The ability of GAT variants (B6 (SEQ ID NO:7), 0—6D10 (SEQ ID NO:448), 17-15H3 (SEQ ID NO:601), and 20-8H12c (SEQ ID NO:817)) to transfer the propionyl group from propionyl CoA to glyphosate was tested in reaction mixtures containing 5 mM glyphosate or no glyphosate. Propionyl CoA was present at 1 mM. After 30 minutes the reactions were terminated and the presence of free […] was determined by the addition of DTNB.

[8] = assay type: physicochemical; details: buffer, pH 7.2
Experimental: The half lives of several GAT polypeptides were also measured at 37.5° C. according to the following procedure. GAT polypeptides 401 (SEQ ID NO: 6), 17-15H3 (SEQ ID NO: 601), 20-8H12 (SEQ ID NO: 739), 22-13B12 (SEQ ID NO: 781), 22-15B4 (SEQ ID NO: 946) and 22-18C5 (SEQ ID NO: 795) were incubated in a matrix of 25 mM Hepes, pH 7.2, 10 mM KCl and 10% methanol (“HKM”). At various timepoints, aliquots were withdrawn and assayed in triplicate at 22° C. using the continuous spectrophotometric assay described in Example 7 using saturating concentrations of glyphosate (20 mM for 401, 5 mM for the rest) and AcCoA (167 uM). The standard error at each time point averaged about 2.9%. GAT activity was plotted as a function of incubation time and the data was fitted to a curve for exponential decay (y=e^−x), where y is enzyme activity and x is time in hours, from which half life was calculated.

maize plants = assay: Effect of temperature variation on glyphosate tolerance of T1 maize expressing GAT transgenes; assay type: in vivo; details: cool/cold, warm and hot conditions, 0×, 4×, 6×, 8× glyphosate at V2, scored 5 and 14 days
Experimental: Maize plants expressing GAT variant transgenes 10—4F2 (SEQ ID NO:203), 17-15H3 (SEQ ID NO:549), and 18-28D9b (SEQ ID NO:814) were produced using the methods described in Example 13. The effect of temperature on glyphosate tolerance was evaluated in T1 plants. The T1 plants were grown in cool/cold (day 14° C., night 8° C.), warm (day 28° C., night 20° C.), and hot (day 37° C., night 20° C.) conditions. T1 plants were sprayed at V2 with four different glyphosate spray treatments (0×, 4×, 6×, and 8×). Plants were scored at 5 and 14 days after treatment for leaf discoloration and plant height comparisons as described in Example 13.

## O=C(O)CNCP(=O)(O)O [Glyphosate, N-phosphonomethylglycine]
[1]
  Glyphosate concentrations that completely inhibited any shoot formation: greater than 20 uM

B1: GAT4620: altered gat coding sequence encoding 25-8H7 M1MA; Ala codon inserted, first 7 codons more frequently utilized, Ser 62 and Arg 111 changed (nucleic acid)
DNA: ATGGCTATTGAGGTTAAACCTATTAACGCAGAGGATACCTATGACCTAAGGCATAGAGTCCTCAGACCAAACCAGCCGATAGAAGCGTGTATGTTTGAAAGCGATTTAACGCGTAGTGCATTTCACTTAGGCGGCTTCTACGGGGGCAAACTGATTTCCGTCGCTTCATTCCACCAGGCCGAGCACTCTGAACTTCAAGGCAAGAAACAGTACCAGCTTCGAGGTGTGGCTACCTTGGAAGGTTATCGTGAGCAGAAGGCGGGTTCCAGTCTAGTTAAACACGCTGAAGAAATTCTACGTAAGAGGGGGGCGGACATGATTTGGTGTAATGCGAGGACATCTGCCTCAGGCTACTACAGAAAGTTAGGCTTCAGCGAGCAGGGAGAGGTATTCGACACGCCGCCAGTAGGACCTCACATCCTGATGTATAAAAGGATCACATAA
modifications: Synthetic nucleic acid sequence GAT4620; CDS (1)...(444): encodes 25-8H7 M1MA (SEQ ID NO:950)
notes: Ala codon inserted, first 7 codons more frequently utilized, Ser 62 and Arg 111 changed
[2]
  level of GAT protein accumulated compared to the unmodified GAT25-8H7/4618 gene: comparable

B2: YitI: most closely related sequence available in Genbank, yitI from Bacillus subtilis (protein, UniProt O06744 1-149, looked up)
Uncharacterized …: MLEVKTISVEDTYEIRHRILRPHQSIEQCKYKEDHAEGSFHLGVFYDGTLISIASFSPQSQPLLTEASAYRLRGMATLEGYRDQKAGSTLIKHAEHKLAESGVQAVWCNARHHVKGYYAKLGWKELGEPFDIPGIGNHIVMYKTLRTSR
[3]
  GAT activity: detectable GAT activity

B3: GAT4621: altered gat coding sequence encoding 25-8H7 M1MA; Ala codon inserted and more frequently utilized codons throughout (nucleic acid)
DNA: ATGGCTATTGAGGTTAAGCCTATCAACGCAGAGGATACCTATGACCTTAGGCATAGAGTGCTCAGACCAAACCAGCCTATCGAAGCCTGCATGTTTGAGTCTGACCTTACTAGGAGTGCATTTCACCTTGGTGGATTCTACGGAGGTAAACTGATTTCCGTGGCTTCATTCCACCAAGCTGAGCACTCTGAACTTCAAGGTAAGAAGCAGTACCAGCTTAGAGGTGTGGCTACCTTGGAAGGTTATAGAGAGCAGAAGGCTGGTTCCAGTCTCGTGAAACACGCTGAAGAGATTCTCAGAAAGAGAGGTGCTGACATGATCTGGTGTAATGCCAGGACATCTGCTTCAGGATACTACAGGAAGTTGGGATTCAGTGAGCAAGGAGAGGTGTTCGATACTCCTCCAGTTGGACCTCACATCCTGATGTATAAGAGGATCACATAA
modifications: Synthetic nucleic acid sequence GAT4621; CDS (1)...(444): encodes 25-8H7 M1MA (SEQ ID NO:950)
notes: Ala codon inserted and more frequently utilized codons throughout
[2]
  level of GAT protein accumulated compared to the unmodified GAT25-8H7/4618 gene: about two-fold greater

B4: 25-8H7: further evolved GAT enzyme, SEQ ID NO:907; gene GAT25-8H7/4618 SEQ ID NO:906 (protein)
chain: MIEVKPINAEDTYDLRHRVLRPNQPIEACMFESDLTRSAFHLGGFYGGKLISVASFHQAEHSELQGKKQYQLRGVATLEGYREQKAGSSLVKHAEEILRKRGADMIWCNARTSASGYYRKLGFSEQGEVFDTPPVGPHILMYKRIT
modifications: 25-8H7
[4]
  activity with respect to serine and phosphoserine compared to native GAT polypeptide: loss of activity
  kcat/KM % of glyph: 0.00855%
[5]
  kcat/KM Fold imp.: 7031 fold
[6]
  increase in activity with aspartate compared to native GAT polypeptide: 40 fold
  kcat/KM % of glyph: 0.520%

B5: 17-15H3: evolved GAT; polypeptide SEQ ID NO:601, transgene SEQ ID NO:549 (protein)
chain: MIEVKPINAEDTYELRHRILRPNQPIEACMFESDLLRGAFHLGGYYGGKLISIASFHQAEHSELQGQKQYQLRGMATLEGYREQKAGSSLIKHAEEILRKRGADLLWCNARTSASGYYKKLGFSEQGEVFDTPPVGPHILMYKRIT
modifications: D_S00260796_17-15H3
[7]
  glyphosate-dependent hydrolysis of propionyl CoA: showed glyphosate-dependent hydrolysis of propionyl CoA
[8]
  Half-life: 45 h
Maize plants
  effect of growth temperature on glyphosate tolerance: not adversely effected
[4]
  activity with respect to serine and phosphoserine compared to native GAT polypeptide: loss of activity
  kcat/KM % of glyph: 0.0882%
[5]
  kcat/KM Fold imp.: 1086 fold
[6]
  increase in activity with aspartate compared to native GAT polypeptide: 40 fold
  kcat/KM % of glyph: 3.24%
